# B1: VH:VL chains; a variant is named by its letters at X, in order (parent)
# chain 1: QVQLVQSGAEVKKPGASVKVSCKASGYTFTDYXMHWVRQAPGQGLEWMGXVNPNXXXTTYNQKFEGRVTMTTDTSTSTAYMELRSLRSDDTAVYYCARXNXLDXWGQGTTVTVSS
# chain 2: DIQMTQSPSSLSASVGDRVTITCSVSSSVSSIYLHWYQQKPGKAPKLLIYSTSNLASGVPSRFSGSGSGTDFTLTISSLQPEDFATYYCQVYSGYPLTFGGGTKVEIK
# Variants of: B1
# Assay: yeast display scFab, FACS + sequencing
# Procedure, shortened: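 Non-specific binding was called from deep sequencing of sorted yeast cells displaying a heavy-chain CDR mutant scFab library. Cells labelled with anti-Myc and biotinylated ovalbumin (260 μg/mL in PBSB, 3 h, room temperature) or soluble membrane proteins (130 μg/mL, 20 min on ice) were FACS-sorted, collecting the top 25% and bottom 10% of binders from two replicates. A sequence was positive when present in ≥3 of 4 pooled positive samples and absent from all negatives, and negative under the converse rule.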
row,Variant,non-specific binding call
1,YRGKDSGA,binds
2,YRGKDSGS,binds
3,VRGKDSLD,no binding
4,YRGKDSVD,binds
5,YRGKDVGV,binds
6,FRGKGAAA,binds
7,VRGKGAAD,binds
8,YRGKGAAF,binds
9,YRGKGAAS,binds
10,FRGKGAAS,binds
11,FRGKGAAV,binds
12,FRGKGAGA,binds
13,YRGKGAGF,binds
14,FRGKGAGS,binds
15,YRGKGAGY,binds
16,FRGKGAGY,binds
17,YRGKGALA,binds
18,SRGKGALD,binds
19,YRGKGALS,binds
20,VRGKGASA,binds
21,FRGKGASD,binds
22,FRGKGASS,binds
23,FRGKGASV,binds
24,VRGKGAVD,binds
25,FRGKGAVD,binds

row,Variant,non-specific binding call
1,YRGKGAVF,binds
2,FRGKGAVS,binds
3,YRGKGAVS,binds
4,YRGKGAWA,binds
5,VRGKGAWA,binds
6,FRGKGAWD,binds
7,VRGKGAWD,binds
8,YRGKGAWS,binds
9,YRGKGAWY,binds
10,SRGKGDAD,no binding
11,YRGKGDGS,binds
12,VRGKGDWV,no binding
13,YRGKGFGS,binds
14,FRGKGFGV,binds
15,YRGKGFVA,binds
16,YRGKGFVV,binds
17,YRGKGSAA,binds
18,FRGKGSAD,binds
19,YRGKGSAD,binds
20,FRGKGSAV,binds
21,YRGKGSAV,binds
22,FRGKGSGA,binds
23,VRGKGSGA,binds
24,ARGKGSGD,binds
25,FRGKGSGD,binds

row,Variant,non-specific binding call
1,VRGKGSGF,binds
2,FRGKGSGF,binds
3,YRGKGSGF,binds
4,YRGKGSGS,binds
5,FRGKGSGV,binds
6,SRGKGSGV,binds
7,VRGKGSGV,binds
8,FRGKGSLA,binds
9,VRGKGSLA,binds
10,YRGKGSLA,binds
11,VRGKGSSD,no binding
12,VRGKGSSS,binds
13,YRGKGSWA,binds
14,FRGKGSWD,binds
15,YRGKGSWS,binds
16,YRGKGVGD,binds
17,YRGKGVGV,binds
18,YRGKGYAA,binds
19,YRGKGYVV,binds
20,DRGKNDGD,no binding
21,FRGKSAAA,binds
22,YRGKSAAV,binds
23,YRGKSALA,binds
24,YRGKSDGS,binds
25,SRGKSFGS,binds

row,Variant,non-specific binding call
1,YRGKSSAD,binds
2,YRGKSSGF,binds
3,YRGKSSVD,binds
4,YRGKSSWA,binds
5,VRGRAAGD,no binding
6,FRGRAAVD,binds
7,YRGRAAVS,binds
8,FRGRASAD,binds
9,YRGRASGA,binds
10,FRGRASLS,binds
11,YRGRASLY,binds
12,YRGRASVV,binds
13,DRGRDAGA,no binding
14,DRGRDAGD,no binding
15,YRGRDAGF,binds
16,YRGRDALV,binds
17,FRGRDALY,binds
18,YRGRDASA,binds
19,YRGRDASF,no binding
20,YRGRDASS,no binding
21,FRGRDAVD,binds
22,FRGRDAVF,binds
23,VRGRDAVS,binds
24,SRGRDAWA,binds
25,DRGRDAWF,no binding

row,Variant,non-specific binding call
1,DRGRDAWS,no binding
2,ARGRDAWV,binds
3,DRGRDDAA,no binding
4,YRGRDDGD,no binding
5,DRGRDDGS,no binding
6,VRGRDDGV,no binding
7,YRGRDDLA,no binding
8,FRGRDDLV,no binding
9,DRGRDDLV,no binding
10,VRGRDDSA,no binding
11,DRGRDDVA,no binding
12,DRGRDDVD,no binding
13,FRGRDDVF,no binding
14,DRGRDDVF,no binding
15,DRGRDDVV,no binding
16,VRGRDDVV,no binding
17,FRGRDDWA,no binding
18,YRGRDDWF,no binding
19,FRGRDFAD,binds
20,FRGRDFGS,binds
21,VRGRDFGV,binds

# Source: the emibetuzumab library of Makowski et al. (2022)
